From paper PMC11303537, “Deciphering the allosteric regulation of mycobacterial inosine-5′-monophosphate dehydrogenase” (Nature Communications, 2024) come the findings set out here.

Where “and” joins values, the source holds several entries; their conditions need not be identical. Equal entries are not always repeated.

This series concerns the molecule itself. Kind of series: cryo-EM structure; single-particle cryo-EM, MsmIMPDH octamer ~2.5-3.5 µM, 50 mM HEPES pH 7.4, 200 mM KCl, 5 mM DTT, 2 mM MgCl2 excess over nucleotides; datasets apo, ATP, ATP+IMP, ATP+GTP+IMP, ATP+ppGpp+IMP.

B1: inosine-5′-monophosphate dehydrogenase from Mycobacterium smegmatis (enzyme, Mycobacterium smegmatis MC2 155, UniProt A0QSU3 1-513, looked up)
chain: MSIAESSVPIAVPVPTGGDDPTKVAMLGLTFDDVLLLPAASDVVPATADTSSQLTKRIRLRVPLVSSAMDTVTESRMAIAMARAGGMGVLHRNLPVAEQAGQVETVKRSEAGMVTDPVTCSPDNTLAEVDAMCARFRISGLPVVDDTGELVGIITNRDMRFEVDQSKPVSEVMTKAPLITAKEGVSAEAALGLLRRHKIEKLPIVDGHGKLTGLITVKDFVKTEQFPLSTKDSDGRLLVGAAVGVGDDAWTRAMTLVDAGVDVLIVDTAHAHNRGVLDMVSRLKQAVGERVDVVGGNVATRAAAAALVEAGADAVKVGVGPGSICTTRVVAGVGAPQITAILEAVAACKPYGVPVIADGGLQYSGDIAKALAAGASTAMLGSLLAGTAESPGELIFVNGKQFKSYRGMGSLGAMQGRGAAKSYSKDRYFQDDVLSEDKLVPEGIEGRVPFRGPLGTVIHQLTGGLRAAMGYTGSATIEQLQQAQFVQITAAGLKESHPHDITMTVEAPNYYTR
notes: also called MsmIMPDH; MsmGuaB2; source: E. coli BL21 RIL LOBSTR, purified (HisTrap, TEV cleavage, second HisTrap, HiTrap Q, Superdex 200); not shown: His6, N-terminal, cleaved
In the case of B1, the “stoichiometry N” value is 8 and 4.
